This note sets out measurements from publication PMC10563435, “Anti-GARP Antibodies Inhibit Release of TGF-β by Regulatory T Cells via Different Modes of Action, but Do Not Influence Their Function In Vitro” (ImmunoHorizons, 2023).

Conditions in all cases: both partners purified
Assay [1] addresses T1, GARP extracellular domain (aa 20-627), Fc-His part cleaved off (UniProt Q14392).
T1 construct: GARP (LRRC32) extracellular domain, aa 20-627; also called LRRC32; GARP-Fc-His; source: HEK293-E6, transiently transfected, purified from supernatant (Ni-NTA, SEC; Fc-His removed with papain and protein A beads); not shown: Fc (human IgG1), C-terminal, cleaved; His tag, C-terminal, cleaved
Nature of the assay: BLI; Abs (10 µg/ml) captured for 180 s on AMC or AHC (anti-murine or anti-human IgG Fc capture) tips; 10 µg/ml GARP, GARP/L-TGF-β or L-TGF-β in solution for 180 s, 600 s dissociation; PBS. (BLI is a label-free optical method that tracks binding on a fibre tip over time.)

Assay [2] concerns the target T2, His-L-TGF-β1 (N-terminal His tag followed by aa 30-390 of L-TGF-β1) (Homo sapiens (deposit 8C7H), UniProt P01137).
T2 construct: latent TGF-β1 (LAP and mature TGF-β), aa 30-390; The introduction says that the proprotein is cleaved by a furin-like convertase into LAP and mTGF-β, which stay noncovalently associated; also called latent form of TGF-β; source: HEK293-E6, transiently transfected, purified from supernatant (Ni-NTA, SEC)
The assay is described as above.

The target of assay [3] is T3, GARP/L-TGF-β complex (recombinant) (Homo sapiens (deposit 8C7H), UniProt Q14392;P01137).
T3 construct: GARP (LRRC32) extracellular domain, aa 20-627; latent TGF-β1 (LAP and mature TGF-β), aa 30-390; The introduction says that L-TGF-β is linked to GARP by two disulfide bonds and is cleaved into LAP and mTGF-β; also called L-TGF-β/GARP complex; GARP-Fc-His/L-TGF-β; source: HEK293-E6, transiently transfected, purified from supernatant (Ni-NTA, SEC; Fc-His removed with papain and protein A beads); not …
Nature of the assay: cryo-EM structure; GARP/L-TGF-β incubated 30 min at 4°C with an excess of Fab, complex purified by SEC in 15 mM HEPES (pH 7.5), 100 mM NaCl; LHG-10 map 2.7 Å with atomic model; 28G11 map 7.5 Å with docked models of PDB 6GFF.

Assay [4] concerns the target T4, L-TGF-β1 (aa 30-390), as it stands in the GARP/L-TGF-β complex (UniProt P01137).
T4 construct: latent TGF-β1 (LAP and mature TGF-β), aa 30-390; Untagged construct, used only within the complex m3; The introduction says it is cleaved into LAP and mTGF-β; also called LAP and mTGF-β; source: HEK293-E6, transiently transfected, purified as the complex with GARP
Described as above.

Assay [5] has as its target T3, GARP/L-TGF-β complex (recombinant). Nature of the assay: BLI; Abs (10 µg/ml) captured for 180 s on AMC or AHC (anti-murine or anti-human IgG Fc capture) tips; 10 µg/ml GARP, GARP/L-TGF-β or L-TGF-β in solution for 180 s, 600 s dissociation; PBS.

T2 sequence (P01137 30-390): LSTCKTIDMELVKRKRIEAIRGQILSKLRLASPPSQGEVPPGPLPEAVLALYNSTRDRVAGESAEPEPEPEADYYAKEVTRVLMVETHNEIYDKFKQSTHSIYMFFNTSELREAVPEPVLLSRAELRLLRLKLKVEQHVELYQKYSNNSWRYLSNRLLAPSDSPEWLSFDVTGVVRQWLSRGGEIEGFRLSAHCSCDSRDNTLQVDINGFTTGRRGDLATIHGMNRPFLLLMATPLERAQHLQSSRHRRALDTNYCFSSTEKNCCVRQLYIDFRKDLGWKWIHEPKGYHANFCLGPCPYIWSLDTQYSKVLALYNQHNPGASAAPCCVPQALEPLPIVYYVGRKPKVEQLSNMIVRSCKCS
T1 sequence (Q14392 20-627): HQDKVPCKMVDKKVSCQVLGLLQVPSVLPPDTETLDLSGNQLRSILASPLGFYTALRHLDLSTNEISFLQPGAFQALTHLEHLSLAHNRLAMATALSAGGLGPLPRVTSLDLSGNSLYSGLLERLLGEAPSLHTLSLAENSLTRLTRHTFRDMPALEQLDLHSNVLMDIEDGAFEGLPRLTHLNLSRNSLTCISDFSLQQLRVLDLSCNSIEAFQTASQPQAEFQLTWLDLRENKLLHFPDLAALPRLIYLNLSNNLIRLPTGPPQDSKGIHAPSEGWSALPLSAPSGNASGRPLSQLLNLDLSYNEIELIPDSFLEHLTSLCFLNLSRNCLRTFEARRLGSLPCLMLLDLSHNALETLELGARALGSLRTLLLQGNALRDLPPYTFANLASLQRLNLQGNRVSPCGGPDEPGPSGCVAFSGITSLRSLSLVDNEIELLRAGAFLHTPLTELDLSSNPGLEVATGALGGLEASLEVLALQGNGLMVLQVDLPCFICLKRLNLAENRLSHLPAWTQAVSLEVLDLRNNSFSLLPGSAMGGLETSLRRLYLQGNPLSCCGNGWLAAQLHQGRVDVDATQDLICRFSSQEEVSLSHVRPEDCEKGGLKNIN
T4 sequence (P01137 30-390, one chain of several): as the sequence (P01137 30-390) above

B1: 28G11 (anti-L-TGF-β / anti-LAP Ab), full-length antibody (antibody, V domains shown)
VH: EVKLVESGGGLVQPGGSLSLSCAASGFTFTDYYMSWVRQPPGKALEWLGFIRNKPNGYTTEYSASVKGRFTISRDNSQSILYLQMNVLRAEDSATYYCARYTGGGYFDYWGQGTTLTVSS
VL: DIQMTQTTSSLSASLGDRLTISCRASQDISNYLNWYQQKPDGTVKLLIYYTSRLHSGVPSRFSGSGSGTDYSLTISNLEQADIATYFCQQGDTLPWTFGGGTKLEIK
notes: A cryo-EM map of its Fab complex is deposited in EMDB, without coordinates; source: HEK293-E6, transiently transfected, purified (protein A MabSelect SuRe)
In the case of B1, the results for the binding result in assay [1] and in assay [2] were “no binding (tested: 10 µg/ml)” and “binds”, respectively.

B2: Fab 28G11 (Fab, V domains shown)
VH: EVKLVESGGGLVQPGGSLSLSCAASGFTFTDYYMSWVRQPPGKALEWLGFIRNKPNGYTTEYSASVKGRFTISRDNSQSILYLQMNVLRAEDSATYYCARYTGGGYFDYWGQGTTLTVSS
VL: DIQMTQTTSSLSASLGDRLTISCRASQDISNYLNWYQQKPDGTVKLLIYYTSRLHSGVPSRFSGSGSGTDYSLTISNLEQADIATYFCQQGDTLPWTFGGGTKLEIK
notes: Fab part of the heavy chain of m5; The cryo-EM map is deposited in EMDB, without coordinates; As the light chain of m5; source: HEK293-E6 antibody cleaved with immobilized papain, Fc removed with protein A beads
In general, stoichiometry N refers to the number of molecules, sites or subunits per partner or assembly. As to B2, in assay [3], the “stoichiometry N” value turned out to be 1. Further, in assay [4], the binding result is recorded as “binds”.

B3: MHG-8 (anti-L-TGF-β/GARP Ab), full-length antibody (antibody, V domains shown)
VH: QVQLKESGPGLVAPSQSLSITCTVSGFSLTGYGINWVRQPPGKGLEWLGMIWSDGSTDYNSVLTSRLRISKDNSNSQVFLKMNSLQVDDTARYYCARDRNYYDYDGAMDYWGQGTSVTVSS
VL: DIQVTQSSSYLSVSLGDRVTITCKASDHIKNWLAWYQQKPGIAPRLLVSGATSLEAGVPSRFSGSGSGKNFTLSITSLQTEDVATYYCQQYWSTPWTFGGGTTLEIR
notes: source: HEK293-E6, transiently transfected, purified (protein A MabSelect SuRe)
For the molecule B3, the figures for the binding result in assay [1], in assay [2] and in assay [5] were “no binding (tested: 10 µg/ml)”, “no binding (tested: 10 µg/ml)” and “binds”, respectively.

B4: LHG-10 (anti-L-TGF-β/GARP Ab), full-length antibody (antibody, V domains shown)
VH: EVQLVQPGAELRNSGASVKVSCKASGYRFTSYYIDWVRQAPGQGLEWMGRIDPEDGGTKYAQKFQGRVTFTADTSTSTAYVELSSLRSEDTAVYYCARNEWETVVVGDLMYEYEYWGQGTQVTVSS
VL: DIQMTQSPSSLSASLGDRVTITCQASQSISSYLAWYQQKPGQAPNILIYGASRLKTGVPSRFSGSGSGTSFTLTISGLEAEDAGTYYCQQYASVPVTFGQGTKVELK
notes: as for B3
Take B4: the results for the binding result in assay [1], in assay [2] and in assay [5] were “no binding (tested: 10 µg/ml)”, “no binding (tested: 10 µg/ml)” and “binds”, respectively.

B5: Fab LHG-10 (Fab, V domains shown)
VH: EVQLVQPGAELRNSGASVKVSCKASGYRFTSYYIDWVRQAPGQGLEWMGRIDPEDGGTKYAQKFQGRVTFTADTSTSTAYVELSSLRSEDTAVYYCARNEWETVVVGDLMYEYEYWGQGTQVTVSS
VL: DIQMTQSPSSLSASLGDRVTITCQASQSISSYLAWYQQKPGQAPNILIYGASRLKTGVPSRFSGSGSGTSFTLTISGLEAEDAGTYYCQQYASVPVTFGQGTKVELK
notes: Fab part of the heavy chain of m8; As the light chain of m8; source: HEK293-E6 antibody cleaved with immobilized papain, Fc removed with protein A beads
With B5, the binding result in assay [3] was “binds”.
